Results as given in article PMC7409020, “Tumor-Targeting Peptides: The Functional Screen of Glioblastoma Homing Peptides to the Target Protein FABP3 (MDGI)” (Cancers, 2020).

Molecular target: A-CooP
Experiment: SPR; Biacore T100; A-CooP immobilised on a CM5 chip (FC-4) by amine coupling, scrambled control peptide on the reference flow cell (FC-3); FABP3 as analyte 0.5-32 µM; 25 °C; PBS with 0.05% Tween-20, pH 7.4; steady state affinity fit of reference-subtracted sensorgrams; mean of three experiments

Kd: 16.7 µM
Substance: recombinant N-terminal His6-tagged human FABP3 (natural protein)
